Experimental data: PMC12193700, “Hyperthermophilic L-Asparaginase from Thermococcus sibiricus and Its Double Mutant with Increased Activity: Insights into Substrate Specificity and Structure” (International Journal of Molecular Sciences, 2025)

Key:
Experiment in all cases: direct Nesslerization (ammonia release)
TsAI = biological target: T1, TsAI (Thermococcus sibiricus, UniProt C6A532, D54G/T56Q); assay type: biochemical; conditions: 90 °C, 0.05 M Tris-HCl pH 9.0; 0.25–20 mM substrate
T1 construct: gene TSIB_1676; full-length, 331 residues, homodimer
From the text: (§1) direct Nesslerization (ammonia release) on TsAI

[1] = substrate: NC(=O)CC[C@@H](N)C(=O)O; assay type: biochemical, Thermococcus sibiricus; conditions: 90 °C, 0.05 M Tris-HCl pH 9.0, 0.25–40 mM substrate
From the text: as §1

[2] = substrate: NC(=O)CC[C@H](N)C(=O)O; assay type: biochemical, Thermococcus sibiricus; conditions: 90 °C, 0.05 M Tris-HCl pH 9.0, 0.25–30 mM substrate
From the text: as §1

[3] = substrate: NC(=O)C[C@@H](N)C(=O)O; assay type: biochemical, Thermococcus sibiricus; conditions: 90 °C, 0.05 M Tris-HCl pH 9.0, 0.25–30 mM substrate
From the text: as §1

[4] = substrate: NC(=O)C[C@H](N)C(=O)O; assay type: biochemical, Thermococcus sibiricus; conditions: 90 °C, 0.05 M Tris-HCl pH 9.0, 0.25–20 mM substrate
From the text: as §1

Km (TsAI)	Molecule	Km [1]	Vmax [1]	Km [2]	Vmax [2]	Km [3]	Vmax [3]	Km [4]	Vmax [4]
6.03 ± 0.15 mM	NC(=O)C[C@H](N)C(=O)O [L-asparagine]	–	–	–	–	–	–	–	–
–	TsAI (Thermococcus sibiricus MM 739) (protein, full-length, 331 residues, homodimer) MKKLLIIGTGGTIASAKTEQGYKSVLKIDEILKLAKIKLENGYKIDSTNIMNIDSTLIHPEDWEIIAKEVFKALDDYDGIIITHGTDTLAYTASMLSFMIKNPNKPIVLTGSMLPITENGSDAPRNIRTAIKFAMEDVAGVFVAFMDKIMLGCRTSKVRTLGLNAFMSINYPDVAYVKGEKILYNIPKEKFQPNGSPELDTKYEPRVVVLRVTPGLGGEIIDAVLDAGYKGIVLEGYGAGGLPYRKSNLLSKIKEITPKIPVIMTTQALYDGVDMRKYEVGRKALETGIIPAKDMTKEATITKLMWALGHTKDVEKIREIMHTNYVNEIKS	13.86 ± 0.86 mM	180 µM/min	11.09 ± 0.25 mM	280 µM/min	8.63 ± 0.48 mM	660 µM/min	3.10 ± 0.15 mM	4020 µM/min
–	TsAI (Thermococcus sibiricus MM 739; D54G/T56Q) (protein, full-length, 331 residues, homodimer) MKKLLIIGTGGTIASAKTEQGYKSVLKIDEILKLAKIKLENGYKIDSTNIMNIGSQLIHPEDWEIIAKEVFKALDDYDGIIITHGTDTLAYTASMLSFMIKNPNKPIVLTGSMLPITENGSDAPRNIRTAIKFAMEDVAGVFVAFMDKIMLGCRTSKVRTLGLNAFMSINYPDVAYVKGEKILYNIPKEKFQPNGSPELDTKYEPRVVVLRVTPGLGGEIIDAVLDAGYKGIVLEGYGAGGLPYRKSNLLSKIKEITPKIPVIMTTQALYDGVDMRKYEVGRKALETGIIPAKDMTKEATITKLMWALGHTKDVEKIREIMHTNYVNEIKS	14.40 ± 1.60 mM	180 µM/min	11.41 ± 0.27 mM	250 µM/min	9.18 ± 0.86 mM	590 µM/min	–	–
